What was measured:
Experiment in all cases: DRaCALA; GTP; DRaCALA of EF-Tu:GTP:Phe-tRNA ternary complexes, 2 ul spotted on nitrocellulose, n>=3; binding buffer, pH and temperature not in the material
Bta mt-EF-Tu D384K = Bta mt-EF-Tu D384K (Bos taurus, UniProt P49410 44-452, D384K)
Bta mt-EF-Tu D384A = Bta mt-EF-Tu D384A (Bos taurus, UniProt P49410 44-452, D384A)
Bta mt-EF-Tu = Bta mt-EF-Tu (Bos taurus, UniProt P49410 44-452)

B1: Phe-tRNAPhe (canonical) (structured_RNA)
RNA: GCGGAUUUAGCUCAGUUGGGAGAGCGCCAGACUGAAGAUCUGGAGGUCCUGUGUUCGAUCCACAGAAUUCGCACCA
modifications: 3'-aminoacylated with Phe (flexizyme)
Work on B1 yielded a Kd (Bta mt-EF-Tu D384K) of 76.6 nM, a Kd (Bta mt-EF-Tu D384A) of 11.5 nM and a Kd (Bta mt-EF-Tu) of 5.8 nM.
